Results on one substance are retold here after article doi:10.1101/382838.

The assay has as its target C. elegans PGL-3 N-terminal dimerization domain (NtDD), wild type (C. elegans). Kind of assay: SEC-MALS. On the technique in general: SEC sorts molecules by how far they enter the pores of the column.

Turning to “C. elegans PGL-3 N-terminal dimerization domain (NtDD), wild type (domain or fragment)”, the stoichiometry N (in general, the number of molecules, sites or subunits per partner or assembly) worked out at 2.
